Drawing on paper PMC11528890, this text covers stoichiometry N (Fe-protein:MoFe-protein) for one substance.

“And” between values parts separate entries of the source, which are not always exact repeats. Equal values may be shown once.

For the assay, the target named is nitrogenase MoFe-protein (Azotobacter vinelandii) (UniProt P07328). The assay is described as follows: cryo-EM structure; single particle cryoEM of the ADP-AlF4- stabilized complex of the two nitrogenase proteins; grids prepared anaerobically in the vinyl tent; carbon-layered grids.
Chain of UniProt P07328 (P07328 whole entry, chain 1 of 2): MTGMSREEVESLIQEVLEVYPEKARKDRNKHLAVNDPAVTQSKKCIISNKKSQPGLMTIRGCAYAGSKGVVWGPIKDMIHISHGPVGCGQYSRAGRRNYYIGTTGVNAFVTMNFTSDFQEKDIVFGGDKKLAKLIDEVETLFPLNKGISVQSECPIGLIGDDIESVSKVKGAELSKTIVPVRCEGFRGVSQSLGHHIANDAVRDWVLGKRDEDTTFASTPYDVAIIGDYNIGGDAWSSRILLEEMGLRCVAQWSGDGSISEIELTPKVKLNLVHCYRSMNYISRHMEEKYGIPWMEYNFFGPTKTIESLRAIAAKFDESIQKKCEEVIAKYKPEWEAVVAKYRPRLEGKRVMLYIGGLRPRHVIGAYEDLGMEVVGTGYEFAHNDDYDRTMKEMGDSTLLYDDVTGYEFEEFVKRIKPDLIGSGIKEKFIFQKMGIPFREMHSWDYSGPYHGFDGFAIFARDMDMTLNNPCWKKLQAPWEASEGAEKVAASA
Chain of UniProt P07328 (P07329 whole entry, chain 2 of 2, further chain): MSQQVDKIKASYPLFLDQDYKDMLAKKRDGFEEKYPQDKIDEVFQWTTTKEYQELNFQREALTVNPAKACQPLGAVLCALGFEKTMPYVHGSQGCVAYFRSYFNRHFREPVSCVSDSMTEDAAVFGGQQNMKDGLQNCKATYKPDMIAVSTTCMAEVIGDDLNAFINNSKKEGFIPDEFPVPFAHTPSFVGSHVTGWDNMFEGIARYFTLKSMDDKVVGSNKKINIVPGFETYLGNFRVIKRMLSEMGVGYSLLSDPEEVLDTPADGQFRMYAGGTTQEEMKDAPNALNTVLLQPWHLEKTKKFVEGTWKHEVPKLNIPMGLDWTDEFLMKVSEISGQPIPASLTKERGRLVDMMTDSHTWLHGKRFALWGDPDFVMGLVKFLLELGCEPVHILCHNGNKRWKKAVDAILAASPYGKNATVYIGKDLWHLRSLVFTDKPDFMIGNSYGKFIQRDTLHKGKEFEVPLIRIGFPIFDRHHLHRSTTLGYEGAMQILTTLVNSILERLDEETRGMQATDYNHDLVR

In the case of nitrogenase Fe-protein (enzyme), the stoichiometry N (Fe-protein:MoFe-protein) is 2 and 1.
